The record followed here is article PMC5101909, “Crosslinked duplex DNA nanogels that target specified proteins”.

One series concerns the target albumin (BSA) (bovine, UniProt P02769 25-607). Put plainly: EtBr fluorescence (duplex displacement); EtBr-loaded nanogel; Nanogels generated in PBS; buffer, pH and temperature of thrombin binding assays not in the material (section 2.5 text missing). The following applies: label: EtBr intercalated; 11 bp GCTCCGGTTGG/CCAACCGGAGC; 5' overhangs 7 nt T (aptaDNA) and 12 nt T (coDNA); 3' overhang 9 nt TGTGGTTGG (aptaDNA).

Series [1] concerns the target T1, thrombin (UniProt P00734;P00734 328-363;364-622). Nature of the series: EtBr fluorescence decrease (duplex displacement); EtBr-loaded nanogel; concentration dependent; Nanogels generated in PBS; buffer, pH and temperature of thrombin binding assays not in the material (section 2.5 text missing).
The target in series [2] is T1, thrombin. Nature of the series: EMSA (agarose gel, SYBR Gold); aptamer polymer/thrombin 1/10; Nanogels generated in PBS; buffer, pH and temperature of thrombin binding assays not in the material (section 2.5 text missing).

albumin (BSA), sequence (P02769 25-607): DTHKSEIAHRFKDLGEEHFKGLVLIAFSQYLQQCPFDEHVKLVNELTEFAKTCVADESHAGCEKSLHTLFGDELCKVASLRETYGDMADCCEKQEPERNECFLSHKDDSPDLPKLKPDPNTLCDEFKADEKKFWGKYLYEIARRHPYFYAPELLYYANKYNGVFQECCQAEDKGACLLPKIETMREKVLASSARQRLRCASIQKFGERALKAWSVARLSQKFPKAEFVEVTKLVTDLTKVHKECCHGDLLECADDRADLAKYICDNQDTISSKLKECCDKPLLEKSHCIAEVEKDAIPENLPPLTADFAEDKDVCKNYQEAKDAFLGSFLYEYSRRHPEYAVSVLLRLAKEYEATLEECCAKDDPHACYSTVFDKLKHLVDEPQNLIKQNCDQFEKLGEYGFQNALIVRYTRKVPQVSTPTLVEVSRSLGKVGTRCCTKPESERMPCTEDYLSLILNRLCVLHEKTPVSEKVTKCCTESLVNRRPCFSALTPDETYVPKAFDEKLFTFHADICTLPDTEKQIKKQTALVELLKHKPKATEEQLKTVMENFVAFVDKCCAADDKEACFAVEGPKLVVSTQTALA

B1: P(MPC/aptaDNA)/P(MPC/coDNA) nanogel (mixed)
DNA 1: TTTTTTTGCTCCGGTTGGTGTGGTTGG
DNA 2: TTTTTTTTTTTTCCAACCGGAGC
modifications: 5'-acrydite of both strands copolymerized with MPC (38/1 and 45/1)
For B1, the values for the binding result in the series with albumin (BSA) and with thrombin [1] were “no binding” and “binds”, respectively. As to TTTTTTTGCTCCGGTTGGTGTGGTTGG (structured_DNA, 5'-acrydite copolymerized with MPC (MPC/oligo 38/1)) [P(MPC/aptaDNA)], in the series with thrombin [2], the binding result is recorded as “binds”.
